B1: Pyrococcus furiosus HerA (enzyme, UniProt Q8U1P0 1-551, looked up)
chain: MEEFVGIVRGEASFTSYEFSINPSANVSFGEFVVTKNRDGDLVLGTVRHVKNVNWLLSSVKSNFNSLALDIEEYGESLGENEEVVATVRILGKIEGNELVPNRVPIRNGEYVYKASDDLLQMIYGNDGIEIGTLLLRPNVRIKLDVNELVSRHFAVLAVTGAGKSNAVAVIIKGIVEDVGGTVVVLDPHGDYVNLRLPETGIDLVNIIDGKIRIEDLDPEELADLIGISSSAQIQRHFLSLAWETVKHKNQSLGGESLLEALLDLLNEWISRKTIKYWSEKEGRMKSEDLKSERIETIRGIIFRIRRFLRNYGNIVTSENLVAAIKPGMVNVIDLSPLDENQMKVVVGKFLEAVFEKRVEYEMARKRFEKETSKKKRDEYEEIMTEIESKYPALAYPILVIVEEAHIFAPQGEENDAMRIMGRIAREGRKFGVGLGVVSQRPSKLNEDILSQMNTKIILRIVNPRDQDYVLKASEQLSKDLMDDIAGLGKGEAVIVGQAIKLPALVRIYNFKELRGKAGTGQYGGEDIGILDRWNKMKRNMVNSLDIDIDF
B2: Pyrococcus furiosus NurA (enzyme, UniProt Q8U1N8 1-451, looked up)
chain: MRLLSKQSIERITKILLDELENVRENEQIRNIINSWKPLPSPEKSSIYAVDGSRSVSRLSGTVIYFLSALAVGSGKQLRLSYANAIKSNYGTSDQIVRMQMETLENMLGYLAYRKLEGEKRAILMDGTLTGSLVRPPVYPEDIRSLNVMRALIGESDFENLLNEFLEKLRDHYRKVEEHLEKNGNYDSPILTDNVVEKLRKKYIDTKVIAYGSGKVKVKIPRKALGYSPRVIPIEVLESSRGKSVDELLQELDEEKVELYLGKDDIYDALHMTLSYIEYLYSIDKLLEVKNLAYIAKSFYTKTLARTLGVEIVDTALLDAVIRTLIGHEKEGYLEIEHAVVPPKWSFPDFLLSKFRNIEKLIDKGIHLAYVRFEQGDVIYMLQSTTNIEKILPLILHHKAGGYLRPLQLAHHGVKISYKEARHTLEALINALRNRDPALKIFVKYGRSPLE

Data set [1] concerns the molecule itself. Put plainly: SEC. (In general: Size exclusion chromatography separates by hydrodynamic size, large species first.)
The target of data set [2] is B1. In words: SEC.

As for B1, the binding result in data set [1] is on record as “binds”.

As for B2, the “stoichiometry N” value in data set [2] was 1 to 3 NurA monomers per HerA hexamer.

For the origin of these results see paper PMC2581932 (Cell, 2008).
